# Target: GST-tchvs10a1 fusion protein (plasmid pGEX-4T-2-S10A1) (human)
# Assay: BIAcore (SPR); GST-tchvs10a1 captured on anti-GST antibody as ligand, GST-SR-BI at 200 nM as analyte
substance,measurement,value
GST-SR-BI cytoplasmic domain fusion protein (plasmid pGEX-4T-1-7-5j) (from UniProt Q8WTV0),response (RU),220 RU

# Reference: patent US6008014
